Tests used:
[1] = target: T1, extracellular region of human PD-1 (human, UniProt Q15116 25-170); test: method not given
T1 construct: also called extracellular domain of human PD-1

[2] = target: T1, extracellular region of human PD-1; test: method not given; lower end of the printed range 50-70 nM

T1 sequence (Q15116 25-170 limits assumed): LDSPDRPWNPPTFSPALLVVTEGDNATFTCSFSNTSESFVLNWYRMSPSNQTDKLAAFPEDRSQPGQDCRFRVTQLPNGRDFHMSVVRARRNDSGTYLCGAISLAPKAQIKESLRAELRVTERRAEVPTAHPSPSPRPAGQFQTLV

B1: PD-1 agonist VHH (camelid PD-1 agonist VHH) (VHH)
VHH: EVQLVESGGALVQPGGSLRLSCAASGFTFSSYAMTWVRQAPGKGPEWVSAIASDGASTSYLDSVKGRFTVSRDNAKNTLYLQMNSLKPEDTAVYYCARGGYLTYDRYGQGTQVTVSS
notes: also called PD-1 VHH domain; PD-1 VHH antibody
binding half-life [1]: 15 to 20 s | Kd [2]: 50 to 70 nM
